We go through nine molecules from patent US20250296960A1, “PEPTIDE COMPOSITIONS AND METHODS OF USE THEREOF” (priority 2022, published 2025).

One data set concerns the target T1, human GCGR (Homo sapiens, UniProt P47871).
T1 construct: host or cells: CHO-K1
Description: cAMP assay (HitHunter cAMP) in GCGR-expressing CHO-K1 cells (GCGR+ cells). The class given is cell-based. Particulars: Table 31. The essentials: (§1)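 Luminescent cAMP read-out: after 30 min peptide stimulation at 37 °C in cAMP assay buffer, receptor-expressing CHO-K1 cells (seeded 7×10^3/well the night before) received antibody and detection reagents for 1 h, then Solution A for 3 h, at room temperature in the dark.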

For the next data set, the target named is T2, human GIPR (Homo sapiens, UniProt P48546).
T2 construct: host or cells: CHO-K1
T2 sequence (P48546 22-466): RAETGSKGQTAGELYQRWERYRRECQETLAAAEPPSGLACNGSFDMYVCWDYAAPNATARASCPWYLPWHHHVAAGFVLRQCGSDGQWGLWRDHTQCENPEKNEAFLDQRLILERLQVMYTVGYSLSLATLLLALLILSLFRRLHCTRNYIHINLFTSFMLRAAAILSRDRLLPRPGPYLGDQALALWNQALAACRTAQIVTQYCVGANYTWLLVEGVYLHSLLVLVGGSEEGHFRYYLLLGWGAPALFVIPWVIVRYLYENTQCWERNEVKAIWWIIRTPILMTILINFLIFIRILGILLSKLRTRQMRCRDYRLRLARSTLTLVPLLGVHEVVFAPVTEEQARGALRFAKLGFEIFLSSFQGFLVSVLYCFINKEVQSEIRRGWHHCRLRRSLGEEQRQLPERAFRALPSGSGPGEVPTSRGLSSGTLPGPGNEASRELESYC
Description: cAMP assay (HitHunter cAMP) in GIPR-expressing CHO-K1 cells (GIPR+ cells). Type of data set: cell-based. Particulars: Table 31. The essentials:
as §1

Data set [1] is described as follows: In vitro enzymatic stability against FaSSIF/P (pancreatin in FaSSIF, pH 6.5). Type of data set: in vitro ADME. Particulars: simulated gi fluid, pH 6.5, Half-life (min). The method, then:
This study was conducted to determine the enzymatic stability of SEQ ID NOs. 77, 86, 87, 89, 90, and 91 after biotinylation in artificial intestinal environment. The test samples were prepared by mixing stock solutions of peptide and pancreatin dissolved in FaSSIF solution (pH 6.5) in a weight ratio of 25:1. The test samples were incubated at 37° C. for 120 min. The sampling from test samples was proceeded at the predetermined time points (10, 30, 60, and 120 min) and stopped by 10% TFA solution.
Analytical HPLC was performed to determine the remaining amount on an ACQUITY Premier system (Waters, USA) with an ACQUITY CSH C18 column (Waters, USA) at 35° C. using 0.1% TFA in water and acetonitrile. The remaining amount was determined as a percentage of the peak area at the sampling time point relative to the peak area of the initial sample.
For the stability against FaSSIF/P, the test samples were prepared by mixing stock solutions of peptide and pancreatin dissolved in FaSSIF solution (pH 6.5) in a weight ratio of 19:1. The test samples were incubated at 37° C. for 120 min. The sampling from test samples was proceeded at the predetermined time points (10, 30, 60, and 120 min) and stopped by 10% TFA solution.

Another data set deals with T3, human GLP-1R (Homo sapiens, UniProt P43220).
T3 construct: host or cells: CHO-K1
T3 sequence (P43220 24-463): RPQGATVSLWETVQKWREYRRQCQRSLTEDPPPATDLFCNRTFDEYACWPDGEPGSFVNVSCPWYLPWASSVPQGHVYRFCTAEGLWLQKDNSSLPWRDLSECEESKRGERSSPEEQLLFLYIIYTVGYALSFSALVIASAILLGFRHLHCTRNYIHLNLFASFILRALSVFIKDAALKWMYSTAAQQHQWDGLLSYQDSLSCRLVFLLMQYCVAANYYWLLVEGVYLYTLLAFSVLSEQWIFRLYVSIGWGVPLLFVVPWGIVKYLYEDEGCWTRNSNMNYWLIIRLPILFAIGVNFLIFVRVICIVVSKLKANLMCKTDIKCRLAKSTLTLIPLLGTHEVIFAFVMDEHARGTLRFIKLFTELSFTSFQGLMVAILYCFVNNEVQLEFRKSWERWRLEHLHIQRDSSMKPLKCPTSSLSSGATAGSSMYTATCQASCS
Description: cAMP assay (HitHunter cAMP) in GLP-1R-expressing CHO-K1 cells (GLP-1R+ cells). Particulars: Table 31. Type of data set: cell-based. The essentials: as §1

In data set [2] the target is T4, human GLP-1 receptor (GLP-1R), expressed on CHO-K1 cells (human, UniProt P43220 24-463). Put plainly: cell-based or functional assay.
For data set [3], the target named is T5, human glucagon receptor (GCGR), expressed on CHO-K1 cells (human, UniProt P47871 26-477). Description: cell-based or functional assay.
T5 sequence (P47871 26-477): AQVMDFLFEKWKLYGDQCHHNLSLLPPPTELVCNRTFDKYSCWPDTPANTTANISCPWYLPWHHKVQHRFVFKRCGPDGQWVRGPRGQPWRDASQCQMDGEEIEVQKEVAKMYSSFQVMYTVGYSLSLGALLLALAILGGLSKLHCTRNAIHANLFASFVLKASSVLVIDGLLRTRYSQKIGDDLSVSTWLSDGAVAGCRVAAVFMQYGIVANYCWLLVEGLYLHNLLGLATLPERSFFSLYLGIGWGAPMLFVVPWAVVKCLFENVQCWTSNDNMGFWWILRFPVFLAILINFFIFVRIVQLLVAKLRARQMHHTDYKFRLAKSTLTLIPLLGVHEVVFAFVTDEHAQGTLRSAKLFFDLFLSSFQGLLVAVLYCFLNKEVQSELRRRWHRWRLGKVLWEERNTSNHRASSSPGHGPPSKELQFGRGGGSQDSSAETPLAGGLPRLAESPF
The target in data set [4] is T6, human glucose-dependent insulinotropic polypeptide receptor (GIPR), expressed on CHO-K1 cells (human, UniProt P48546 22-466).
T6 sequence (looked up): T2 sequence (P48546 22-466)
Put plainly: cell-based or functional assay.

The target of data set [5] is T4, human GLP-1 receptor (GLP-1R), …. Put plainly: cell-based or functional assay. The source holds these as a separate data set.
Data set [6] concerns the target T5, human glucagon receptor (GCGR), …. Put plainly: cell-based or functional assay. This is another data set of the same source.
Data set [7] concerns the target T6, human glucose-dependent insulinotropic …. Put plainly: cell-based or functional assay. This is another data set of the same source.
Data set [8] has as its target T4, human GLP-1 receptor (GLP-1R), …. Description: cell-based or functional assay. The source holds these as a separate data set.
For data set [9], the target named is T5, human glucagon receptor (GCGR), …. Put plainly: cell-based or functional assay. This is another data set of the same source.
Data set [10] has as its target T6, human glucose-dependent insulinotropic …. Description: cell-based or functional assay. The source holds these as a separate data set.
Data set [11] addresses T4, human GLP-1 receptor (GLP-1R), …. Description: cell-based or functional assay. The source holds these as a separate data set.
The target in data set [12] is T5, human glucagon receptor (GCGR), …. Put plainly: cell-based or functional assay. The source holds these as a separate data set.
The target in data set [13] is T6, human glucose-dependent insulinotropic …. Put plainly: cell-based or functional assay. The source holds these as a separate data set.

Where two headings read alike, the source gives them in different places. Numbered stars: 1 amine (or outer) side, 2 acyl side, 3 side chain; on linkers, the order of the positions; unused ones are H or OH. Square brackets hold non-standard residues; d marks the D form. Primed or numbered codes have the meaning given here. Side chains are listed from the residue outwards. Ends that are not written are not given here. Peptide text beside a SMILES is read from it. * marks the point of attachment. C18 = C18 fatty acid (C16-C22 fatty acids conjugated via γGlu/8-amino-3,6-dioxaoctanoic acid spacers); C18″ = C18 fatty acid moiety (of 2OEG-γGlu-C18, K*); Biotin = O=C1N[C@H]2[C@H](CS[C@H]2CCCCC(=O)*)N1; C18 diacid = O=C(O)CCCCCCCCCCCCCCCCC(=O)*; γGlu = O=C(O)[C@H](CCC(=O)[*:2])N[*:1]; αMeR = C[C@](N)(CCCNC(=N)N)C(=O)O; AEEA = NCCOCCOCC(=O)O; Aib = CC(C)(N)C(=O)O

T1 sequence (P47871 26-477): as above

Take `CSCC[C@H](NC(=O)[C@H](CCCCNC(=O)CCCC[C@@H]1SC[C@@H]2NC(=O)N[C@@H]21)NC(=O)[C@H](Cc1ccc(O)cc1)NC(=O)[C@H](CC(=O)O)NC(=O)[C@H](CC(C)C)NC(=O)[C@H](CC(C)C)NC(=O)[C@H](CCCCNC(=O)COCCOCCNC(=O)COCCOCCNC(=O)CC[C@H](NC(=O)CCCCCCCCCCCCCCCCC(=O)O)C(=O)O)NC(=O)[C@H](CO)NC(=O)[C@H](Cc1ccc(O)cc1)NC(=O)[C@H](CC(=O)O)NC(=O)[C@H](CO)NC(=O)[C@@H](NC(=O)[C@H](Cc1ccccc1)NC(=O)[C@@H](NC(=O)CNC(=O)[C@H](CCC(N)=O)NC(=O)C(C)(C)NC(=O)[C@@H](N)Cc1ccc(O)cc1)[C@@H](C)O)[C@@H](C)O)C(=O)N[C@@H](CCC(N)=O)C(=O)NC(C)(C)C(=O)N[C@@H](CC(=O)O)C(=O)N[C@@H](Cc1ccccc1)C(=O)N[C@H](C(=O)N[C@@H](CCC(N)=O)C(=O)N[C@@H](Cc1c[nH]c2ccccc12)C(=O)N[C@@H](CC(C)C)C(=O)N[C@@H](CC(C)C)C(=O)N[C@@H](CCC(=O)O)C(=O)NCC(=O)NCC(=O)N1CCC[C@H]1C(=O)N[C@@H](CO)C(=O)N[C@@H](CO)C(=O)NCC(=O)N[C@@H](C)C(=O)N1CCC[C@H]1C(=O)N1CCC[C@H]1C(=O)N1CCC[C@H]1C(=O)N[C@@H](CO)C(N)=O)C(C)C` [compound 91] (H-Y[Aib]QGTFTSDYSK([AEEA-AEEA-γGlu-C18 diacid])LLDYK(Biotin)MQ[Aib]DFVQWLLEGGPSSGAPPPS-NH2; N-terminus and C-terminus assumed): at human GCGR, the “Ratio vs. GLP-1R, GCGR” value was determined as 135 and the “Relative % to native ligand, GCGR” value turned out to be 26%. Moreover, on human GIPR, the “Ratio vs. GLP-1R, GIPR” value is on record as 970 and the “Relative % to native ligand, GIPR” value was found to be 184%. In addition, the half-life (commonly the time needed for the level to fall by half in the phase considered) in data set [1] was 33.3 min. In addition, at human GLP-1R, the “Ratio vs. GLP-1R, GLP-1R” value stood at 100 and the “Relative % to native ligand, GLP-1R” value turned out to be 19%.
Take Y[Aib]QGTFTSDYSK([AEEA-AEEA-γGlu-C18″])LLDYMMQQDFVQWLLEGGPSSGAPPPS-NH2 [SEQ ID NO. 100]: the “Ratio vs. GLP-1R” value worked out at 100 in data set [2], 56 in data set [3] and 103 in [4]. Besides, the entries for the “Relative % to native ligand” value in data set [2], in data set [3] and in data set [4] were 54%, 30% and 55%, respectively.
As for Y[Aib]QGTFTSDYSK([AEEA-AEEA-γGlu-C18″])YLDYMMQRDFVQWLIEGGPSSGAPPPS-NH2 [Peptide No. 5-2D], the “Relative % to non-lipidated peptide” value in data set [5] stood at 35%; in [6], 3%; in [7], 13%. For the same molecule, the “Relative % to native ligand” value is 174% in data set [8], 3% in data set [9] and 93% in data set [10]. The “Ratio vs. GLP-1R” value in data set [11] worked out at 100; in data set [12], 1; in data set [13], 54.
As to Y[Aib]QGTFTSDYSKYLDYMMQRDFVQWLIEGGPSSGAPPPSC-NH2 [Peptide No. 5-2], the “Relative % to non-lipidated peptide” value in data set [5], in data set [6] and in data set [7] was 100% throughout. Besides, the “Relative % to native ligand” value in [8] stood at 495%; in [9], 91%; in data set [10] it was 738%. Also, the entries for the “Ratio vs. GLP-1R” value in data set [11], in data set [12] and in [13] were 100, 18 and 149, respectively.
Regarding H[Aib]QGTFTSDYSK([AEEA-AEEA-γGlu-C18″])LLDYMMQRDFVQWLLEGGPSSGAPPPS-NH2 [Peptide No. 5-5D], the “Relative % to non-lipidated peptide” value in data set [5] is 18%; in data set [6], 1%; in data set [7] it was 40%. For the same molecule, the “Relative % to native ligand” value in [8] was 305%; in [9], 2%; in [10], 212%. Moreover, the entries for the “Ratio vs. GLP-1R” value in data set [11], in data set [12] and in data set [13] were 100, 1 and 70, respectively.
Turning to Y[Aib]QGTFTSDYSKLLDYMMQRDFVQWLLEGGPSSGAPPPSC-NH2 [Peptide No. 5-3], the “Relative % to non-lipidated peptide” value in data set [5], in data set [6] and in [7] was 100% each time. For the same molecule, the “Relative % to native ligand” value was 638% in data set [8], 969% in data set [9] and 7120% in [10]. Besides, the “Ratio vs. GLP-1R” value came to 100 in data set [11], 152 in data set [12] and 1120 in data set [13].
As for Y[Aib]QGTFTSDYSK([AEEA-AEEA-γGlu-C18″])LLDYMMQ[αMeR]DFVQWLLEGGPSSGAPPPS-NH2 [SEQ ID NO. 101], the “Ratio vs. GLP-1R” value came to 100 in [2], 12 in data set [3] and 65 in data set [4]. Besides, the “Relative % to native ligand” value was determined as 722% in data set [2], 89% in data set [3] and 472% in data set [4].
For H[Aib]QGTFTSDYSKLLDYMMQRDFVQWLLEGGPSSGAPPPSC-NH2 [Peptide No. 5-5], the “Relative % to non-lipidated peptide” value in data set [5], in [6] and in [7] was 100% in each case. The “Relative % to native ligand” value stood at 1690% in [8], 260% in [9] and 526% in data set [10]. Besides, the “Ratio vs. GLP-1R” value in [11] is 100; in data set [12] it was 15; in [13], 31.
Turning to Y[Aib]QGTFTSDYSK([AEEA-AEEA-γGlu-C18])LLDYMMQHDFVQWLLEGGPSSGAPPPS-NH2 [SEQ ID NO. 99], the “Ratio vs. GLP-1R” value in data set [2] was 100; in data set [3], 80; in [4] it was 3240. The “Relative % to native ligand” value in data set [2] was 35%; in data set [3], 28%; in data set [4], 1130%.
